Data as given in patent US20230203469A1.

What was measured:
[1] = target: T1, FRETS-VWF73 substrate, P04275
T1 chain: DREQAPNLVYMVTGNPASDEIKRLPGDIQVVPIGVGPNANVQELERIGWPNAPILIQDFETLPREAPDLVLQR

[2] = target: von Willebrand factor (VWF), substrate of the in vitro cleavage of Table 1, P04275
[3] = target: recombinant VWF (full-length, multimeric rVWF), P04275

B1: plasma derived ADAMTS13 (pdADAMTS13) (protein)
chain: AAGGILHLELLVAVGPDVFQAHQEDTERYVLTNLNIGAELLRDPSLGAQFRVHLVKMVILTEPEGAPNITANLTSSLLSVCGWSQTINPEDDTDPGHADLVLYITRFDLELPDGNRQVRGVTQLGGACSPTWSCLITEDTGFDLGVTIAHEIGHSFGLEHDGAPGSGCGPSGHVMASDGAAPRAGLAWSPCSRRQLLSLLSAGRARCVWDPPRPQPGSAGHPPDAQPGLYYSANEQCRVAFGPKAVACTFAREHLDMCQALSCHTDPLDQSSCSRLLVPLLDGTECGVEKWCSKGRCRSLVELTPIAAVHGRWSSWGPRSPCSRSCGGGVVTRRRQCNNPRPAFGGRACVGADLQAEMCNTQACEKTQLEFMSQQCARTDGQPLRSSPGGASFYHWGAAVPHSQGDALCRHMCRAIGESFIMKRGDSFLDGTRCMPSGPREDGTLSLCVSGSCRTFGCDGRMDSQQVWDRCQVCGGDNSTCSPRKGSFTAGRAREYVTFLTVTPNLTSVYIANHRPLFTHLAVRIGGRYVVAGKMSISPNTTYPSLLEDGRVEYRVALTEDRLPRLEEIRIWGPLQEDADIQVYRRYGEEYGNLTRPDITFTYFQPKPRQAWVWAAVRGPCSVSCGAGLRWVNYSCLDQARKELVETVQCQGSQQPPAWPEACVLEPCPPYWAVGDFGPCSASCGGGLRERPVRCVEAQGSLLKTLPPARCRAGAQQPAVALETCNPQPCPARWEVSEPSSCTSAGGAGLALENETCVPGADGLEAPVTEGPGSVDEKLPAPEPCVGMSCPPGWGHLDATSAGEKAPSPWGSIRTGAQAAHVWTPAAGSCSVSCGRGLMELRFLCMDSALRVPVQEELCGLASKPGSRREVCQAVPCPARWQYKLAACSVSCGRGVVRRILYCARAHGEDDGEEILLDTQCQGLPRPEPQEACSLEPCPPRWKVMSLGPCSASCGLGTARRSVACVQLDQGQDVEVDEAACAALVRPEASVPCLIADCTYRWHVGTWMECSVSCGDGIQRRRDTCLGPQAQAPVPADFCQHLPKPVTVRGCWAGPCVGQGTPSLVPHEEAAAPGRTTATPAGASLEWSQARGLLFSPAPQPRRLLPGPQENSVQSSACGRQHLEPTGTIDMRGPGQADCAVAIGRPLGEVVTLRVLESSLNCSAGDMLLLWGRLTWRKMCRKLLDMTFSSKTNTLVVRQRCGRPGGGVLLRYGSQLAPETFYRECDMQLFGPWGEIVSPSLSPATSNAGGCRLFINVAPHARIAIHALATNMGAGTEGANASYILIRDTHSLRTTAFHGQQVLYWESESSQAEMEFSEGFLKAQASLRGQYWTLQSWVPEMQDPQSWKGKEGT
With B1 the “specific activity (FRETS U/antigen U), compared with mixed rADAMTS13 batches” value [1] was “the average specific activity of the mixed rADAMTS13 batches is comparable with the specific activity of pdADAMTS13”, the IU VWF RCo/ml left; ADAMTS13 0.1 U/ml, 0 h (IU VWF RCo/ml) [2] was 0.75 and the IU VWF RCo/ml left; ADAMTS13 0.1 U/ml, 15 seconds (IU VWF RCo/ml) [2] was 0.38. For the same protein, the IU VWF RCo/ml left; ADAMTS13 0.1 U/ml, 30 seconds (IU VWF RCo/ml) [2] was 0.37, the IU VWF RCo/ml left; ADAMTS13 0.1 U/ml, 1 minute (IU VWF RCo/ml) [2] was 0.21 and the IU VWF RCo/ml left; ADAMTS13 0.1 U/ml, 2 minutes (IU VWF RCo/ml) [2] was under 0.17. It also gave an IU VWF RCo/ml left; ADAMTS13 0.1 U/ml, 5 minutes (IU VWF RCo/ml) [2] of under 0.17, an IU VWF RCo/ml left; ADAMTS13 0.5 U/ml, 0 h (IU VWF RCo/ml) [2] of 0.78 and an IU VWF RCo/ml left; ADAMTS13 0.5 U/ml, 15 seconds (IU VWF RCo/ml) [2] of under 0.17. The IU VWF RCo/ml left; ADAMTS13 0.5 U/ml, 30 seconds (IU VWF RCo/ml) [2] was under 0.17, the IU VWF RCo/ml left; ADAMTS13 0.5 U/ml, 1 minute (IU VWF RCo/ml) [2] was under 0.17 and the IU VWF RCo/ml left; ADAMTS13 0.5 U/ml, 2 minutes (IU VWF RCo/ml) [2] was under 0.17. For the same protein, the IU VWF RCo/ml left; ADAMTS13 0.5 U/ml, 5 minutes (IU VWF RCo/ml) [2] was under 0.17, the IU VWF RCo/ml left; ADAMTS13 1.0 U/ml, 0 h (IU VWF RCo/ml) [2] was 0.26 and the IU VWF RCo/ml left; ADAMTS13 1.0 U/ml, 15 seconds (IU VWF RCo/ml) [2] was under 0.17. The IU VWF RCo/ml left; ADAMTS13 1.0 U/ml, 30 seconds (IU VWF RCo/ml) [2] was under 0.17, the IU VWF RCo/ml left; ADAMTS13 1.0 U/ml, 1 minute (IU VWF RCo/ml) [2] was under 0.17 and the IU VWF RCo/ml left; ADAMTS13 1.0 U/ml, 2 minutes (IU VWF RCo/ml) [2] was under 0.17. For the same protein, the IU VWF RCo/ml left; ADAMTS13 1.0 U/ml, 5 minutes (IU VWF RCo/ml) [2] was under 0.17.

B2: Q97 ADAMTS13 (wildtype recombinant ADAMTS13) (protein)
chain: B1 chain
B2 was tested, and the Specific rADAMTS13 activity (activity per total protein by UV) [1] was 1750 IU/mg, the rADAMTS13 Activity (FRETS VWF73) [1] was 2210 IU/mL and the “Degradation of full-length rVWF under denaturing conditions (VWF multimer analysis)” value [3] was “Comparable”.
